In the nanobody polyreactivity screen of Harvey et al. (2022):

Assay: yeast display, Sf9 membrane polyspecificity reagent, FACS + sequencing; frameworks hold sequencing errors
Procedure, shortened: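 In a synthetic yeast display library (Saccharomyces cerevisiae BJ5465), nanobody expression was induced with galactose for 36–48 hours. FACS gates were set low and high (top ~1%) using anti-HA fluorescence for expression and streptavidin fluorescence for binding of the Sf9 membrane reagent. Each polyreactivity label is drawn from the gate of origin.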

Sequence	polyreactivity (PSR sort gate)
QVQLVESGGGLVQAGGSLRLSCAASGSIFRRYAMGWYRQPPGKERELVASISSRGTRTYYADSVKGRFTISRDNAKNTVYLQMNSLKPEDTAVYYCAASYYTPYDYWGQGTQVTVSS	high polyreactivity
QVQLVESGGGLVQAGGSLRLSCAASGSIFRSYAIGWYRQAPGKERELVASISRRGGSTYYADSVKGRFTISRDNAKNTVYLQMKSLKPEDTAVYYCAAVRYNSRVSTTPSEMYYWGQGTQVTVSS	low polyreactivity
QVQLVESGGGLVQAGGSLRLSCAASGSIFRSYALGGYRQAPGKERELVASISRRGGSTYYADSVKGRFTISRDNAKNTVYLQMNSLKPQDTAVYYCAAVRYNSRGSTTPSEMYYWGQGTQVTVSS	low polyreactivity
QVQLVESGGGLVQAGGSLRLSCAASGSIFRSYAMGWYRQAPGKERELVAAISSGGRTKYADSVKGRFTISRDNAKNTVYLQMNSLKPEDTAVYYCAARVNVKYYGFYYWGQGTQVTVSS	high polyreactivity
QVQLVESGGGLVQAGGSLRLSCAASGSIFRSYAMGWYRQAPGKERELVAAITSSSGSTYYADSVKGRFTISRDNAKNTVYLQMNSLKPEDTAVYYCNAPYWKSRFRAYYHWGQGTQVTVSS	high polyreactivity
QVQLVESGGGLVQAGGSLRLSCAASGSIFRTNTMGWYRQAPGKERELVAAITAIGDSTYYADSVKGRFTISRDNAKNTVYLQMNSLKPEDTAVYYCAAEKVSWGYHFYSSYDYWGQGTQVTVSS	low polyreactivity
QVQLVESGGGLVQAGGSLRLSCAASGSIFRTYAMGWYIQAPGKERELVAAIRRSGGRTYYADSVKGRFTISRDNAKNTVYLQMNSLKPEDTAVYYCNKRVSKQSKYDYWGQGTQVTVSS	high polyreactivity
QVQLVESGGGLVQAGGSLRLSCAASGSIFRTYAMGWYRQAPGKEWELVAAISGSGSRTYYADSVKGRFTISRDNAKNTVYLQMNSLKPEDTAVYYCAAQTFAYKVFFLYDYWGQGTQVTVSS	low polyreactivity
QVQLVESGGGLVQAGGSLRLSCAASGSIFRTYVMGWYRQAPGKERELVAAISSSGGRTYYADSVKGRFTISRDNAKNTVYLLMNSLKPEDTAVYYCAAPRTSTRYRLTLQGVNQYDYWGQGTQVTVSS	high polyreactivity
QVQLVESGGGLVQAGGSLRLSCAASGSIFRVYAMGWYRQAPGKERELVAAITNGGNTNYADSVKGRFTISRDNAKNTVYLQMNSLKPEDTAVYYCAATLHRYWYRLYYYWGQGTQVTVSS	high polyreactivity
QVQLVESGGGLVQAGGSLRLSCAASGSIFRVYAMGWYRQAPGKERELVATISGSAGRTYYADSVKGRFTISRDNAKNTVYLQMNSLKPEDTAVYYCAARWYKEYYWGQGTQVTVSS	high polyreactivity
QVQLVESGGGLVQAGGSLRLSCAASGSIFRWNAMGWYRQAPGKERELVAAISKSGGRRYYADSVKGRFTISRDNAKNTVYLQMNSVKPEDTAVYYCAAGYTTTQYYGPQYDYWGQGTQVTVSS	high polyreactivity
QVQLVESGGGLVQAGGSLRLSCAASGSIFRWNAMGWYRQAPGKERELVAGIRWDSGSTYYADSVKGRFTISRDNAKNTVYLQMNSLKPEDTAVYYCAADLFDFLLIDGFAVVTYGYWGQGTQVNVSS	low polyreactivity
QVQLVESGGGLVQAGGSLRLSCAASGSIFRWYAMGWSRQAPGKERELVAAISKSGGTTYYADSVKGRFTISRDNAKNTVYLQMNSLKPEDTAVYYCAARRYPYGGYGYRYDYWGQGTQVTVSS	high polyreactivity
QVQLVESGGGLVQAGGSLRLSCAASGSIFRWYAMGWSRQAPGKERQLVAAIRGNGASTYYADSVKGRFTISRDNAKNTVYLQMNSLKPEDTAVYYCAAYPSFYHSQYGYWGQGTQVTVSS	high polyreactivity
QVQLVESGGGLVQAGGSLRLSCAASGSIFRWYAMGWYRQAPGKERELVAGISSTGGSTYYADSVKGRFTISRDNAKNTVYLQMNSLKPEDTAVYYCAVVSYPSAFRRYNYWGQGTQVTVSS	high polyreactivity

Sequence	polyreactivity (PSR sort gate)
QVQLVESGGGLVQAGGSLRLSCAASGSIFRYNAMGWYRKAPGKEREFVAIISYSGVRTYYADSVKGRFTISRDNAKNTVYLQMNSLKPEDTAVYYCAADFKQKGHRTRTTYWGQGTKVTVSS	high polyreactivity
QVQLVESGGGLVQAGGSLRLSCAASGSIFRYNAMGWYRKAPGKERELVAAIRSGGSTYYADSVKGRFTISRDNAKNTVYLQMNSLKPEDTAVYYCNARRYVGYDYWGQGTQVTVSS	high polyreactivity
QVQLVESGGGLVQAGGSLRLSCAASGSIFRYNAMGWYRQAPGKEREFVAAITRSGGSTYADSVKGRFTISRDNAKNTVYLQMNSLKPEDTAVYYCAATFKWYSHTKPRFDYWGQGTQVTVSS	low polyreactivity
QVQLVESGGGLVQAGGSLRLSCAASGSIFRYNAMGWYRQAPGKERELVAAIDWSGGTYYADSVKGRFTISRDNAKNTVYLQMNSLKPEDTAVYYCNARGSKYSSYWGYDYWGQGTQVTVSS	low polyreactivity
QVQLVESGGGLVQAGGSLRLSCAASGSIFRYNAMGWYRQAPGKERELVAAISTSGGSTYYADSVKGRFTISRDNAKNTVYLQMNSLKPEDTAVYYCNKLRNSDSRGIVWYGYWGQGTQVTVSS	high polyreactivity
QVQLVESGGGLVQAGGSLRLSCAASGSIFRYNAMGWYRQAPGKERELVAAITSGDSTYYADSVKGRFTISRDNAKNTVYLQMISLKPEDTAVYYCAADDWRPFDGYYPLKSEREYWGQGTEVTVSS	low polyreactivity
QVQLVESGGGLVQAGGSLRLSCAASGSIFRYNAMGWYRQAPGKERELVAAITWSGGSTYYADSVKGRFTISRDNAKNSVYLQMNSLKPEDTAVYYCAASPYPHYRRYTGGFYYWGQGTQVTVSS	high polyreactivity
QVQLVESGGGLVQAGGSLRLSCAASGSIFRYNAMGWYRQAPGKETELVAAISASGGRTHYADSVKGRFTISRDNAKNTVYLQMNSLKPEDTAVYYCAAATYRGTSLYGYWGQGTQVTVSS	high polyreactivity
QVQLVESGGGLVQAGGSLRLSCAASGSIFRYNTMGWYRQAPGKERELVATITRRGGSTYYADSVKGRFTISRDNAKNTVYLQMNSLKPEDTAVYYCNADNFGGPYNYWGQGTQVTVSS	low polyreactivity
QVQLVESGGGLVQAGGSLRLSCAASGSIFRYYAKGWYRHAPGKERELVAVISRSGTRTYYADSVKGRFTISRDNAKNTVYLQMNSLKPEDTAVYYCAAKDERRSFGMGYWGQGTQVTVSS	high polyreactivity
QVQLVESGGGLVQAGGSLRLSCAASGSIFRYYAMGGYIQAPGKERELVAAISGDSGRTYYADSVKGRFTISRDNAKNTVYFQMNSLNPDDTAVYYCNARVAYRYRTGYDYWGQGTQVTVSS	high polyreactivity
QVQLVESGGGLVQAGGSLRLSCAASGSIFRYYAMGWYIQAPGKERELVAAISYSGGTTYYADSVKGRFTISRDNAKNTVYLQMNSLKPEDTAVYYCAVPLIGVDGYAYDYWGQGTQVTVSS	low polyreactivity
QVQLVESGGGLVQAGGSLRLSCAASGSIFRYYAMGWYRQAPGKEREFVASITYRGGRTYYADSVKGRFTISRDNAKNTVYLQMNSLKPEDTAVYYCAARTRAGAWTSKYLDYWGQGTQVTVSS	high polyreactivity
QVQLVESGGGLVQAGGSLRLSCAASGSIFRYYAMGWYRQAPGKERELVAAISSSGGSTYYADSVKGRFTISRDNAKNTVYLQMNSLKPEDTAGYYCAAVYTQSNSATMYYWGQGTQVTVSS	high polyreactivity
QVQLVESGGGLVQAGGSLRLSCAASGSIFRYYAMGWYRQAPGKERELVANISRGGRTYYADSVKGRFTISRDNAKYTVYLQLHSLNPEDTSVYYCAAGYWFSYSRVTRYDYWGQGTQVTVSS	high polyreactivity
